Test results published in patent publication US20070184522A1, “Cell death modulation via antagonists of Fasl and Fas activation” (University of Pittsburgh of the Commonwealth System of …, priority 2004, published 2007).

How the values were obtained:
[1] = target: endogenous Fas of Jurkat cells (human) (UniProt P25445); assay: cell-based or functional assay
[2] = target: T1, Fas on Jurkat cells (Homo sapiens, UniProt P25445); assay: Immunostaining of cell surface FasL binding on Jurkat cells; type: cell-based; settings: 4° C. 30 minutes
T1 construct: endogenous in cells; host or cells: Jurkat
T1 sequence (P25445 26-335): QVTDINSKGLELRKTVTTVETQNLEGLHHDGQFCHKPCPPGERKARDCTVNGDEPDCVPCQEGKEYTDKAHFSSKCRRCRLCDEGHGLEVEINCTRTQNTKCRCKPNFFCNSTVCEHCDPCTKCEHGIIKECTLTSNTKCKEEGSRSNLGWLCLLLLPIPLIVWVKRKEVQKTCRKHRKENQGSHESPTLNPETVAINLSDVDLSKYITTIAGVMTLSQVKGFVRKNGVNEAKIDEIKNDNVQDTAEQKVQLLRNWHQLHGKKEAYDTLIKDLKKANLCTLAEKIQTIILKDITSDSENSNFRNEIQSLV
Method: This antibody also recognizes Fas-Fc which is also tagged at the C-terminus by His. In FIG. 2b, a fixed amount of purified recombinant Fas-ligand was added to Fas-Fc in the absence or presence of increasing amounts of AlphaMet as indicated. Samples were subjected to pull down using proteinA agarose followed by Western blot using a polyclonal rabbit anti-FasL antibody. […] Fas ligand (1 μg/ml) was coated in the wells of a microtiter plate (triplicate wells) then 1 μg/ml of Fas-Fc was added in the absence or presence of an increasing amount of the indicated polypeptide. A 13 mer YLGA polypeptide derived from FasL also was synthesized and used. The control peptide was a scrambled 13 mer. Anti human IgM-HRP conjugates were used to detect the bound Fas-Fc. […] One-way ANOVA was carried out for determination of statistical significance. […] Cells (3×10^5) were plated in 24-well plates having Poly-L-Lysine pre-treated cover glass. 2 μg/ml of Fas ligand was added and the cells were incubated for 30 min on ice. Cells were then washed by PBS twice, and were subjected to immunostaining using anti-Fas ligand antibody and fluorescent microscopy. […]
Abrogation of Fas-FasL binding by the presence of the synthetic polypeptides corresponding to the AlphaMet YLGA (SEQ ID NO:1) motif was then analyzed. […]

sub-G1 population of Jurkat cells treated with Fas-ligand (Propidium Iodide, flow cytometry) [1]: 8%
cell surface FasL binding to Fas [2]: blocked
B1: alpha subunit of Met (AlphaMet), amino acid residues 1 to 306, His-tagged (receptor, mouse)
chain: MKAPTVLAPGILVLLLSLVQRSHGECKEALVKSEMNVNMKYQLPNFTAETPIQNVVLHGHHIYLGATNYIYVLNDKDLQKVSEFKTGPVLEHPDCLPCRDCSSKANSSGGVWKDNINMALLVDTYYDDQLISCGSVNRGTCQRHVLPPDNSADIQSEVHCMFSPEEESGQCPDCVVSALGAKVLLSEKDRFINFFVGNTINSSYPPGYSLHSISVRRLKETQDGFKFLTDQSYIDVLPEFLDSYPIKYIHAFESNHFIYFLTVQKETLDAQTFHTRIIRFCSVDSGLHSYMEMPLECILTEKRRKRHHHHHH
death rate of Jurkat cells treated with Fas-ligand (Trypan Blue) [1]: 12%
